Measurements as given in the nanobody polyreactivity screen of Harvey et al. (2022).

Assay: yeast display, Sf9 membrane polyspecificity reagent, FACS + sequencing; frameworks hold sequencing errors
In short: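 Nanobodies from a synthetic yeast display library (Saccharomyces cerevisiae BJ5465), induced 36–48 hours with galactose, were stained 1 hour at 4 °C with 10% biotinylated, detergent-solubilized Sf9 membrane reagent, enriched on streptavidin microbeads, then FACS-sorted. Anti-HA (expression) and streptavidin (reagent binding) fluorescence set low and high (top ~1%) gates. Polyreactivity labels come from the gate of origin. Genes were colony-PCR amplified, MiSeq 2 × 250 sequenced and filtered by CDR length.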

| Sequence | polyreactivity (PSR sort gate) |
| --- | --- |
| QVQLVEAGGGLVQAGGSLRFSCAASGYIVRSYAMGWYRQAPGKERELVAAITRSGGSTYYADSVKGRFSISRDNAQNSVYLQMNSLKPEDTAVYYCTAKRFRTGFDYWGQGTQVTVSS | low polyreactivity |
| QVQLVEAGGGLVQAGGSLRLSCAASGITCRNDAIGWYRQAAGKERELVADITTGGSTYADSVKGRFTISRDNAKNTVYLQLISLKPEDTAVYYFAADRDFRTPRLYYWGQGTQVTVSS | low polyreactivity |
| QVQLVEAGGGLVQAGGSLRLSCAASGLTFTVYAMGWYRQAPGKERELVAAITGSGTSTYYADSVKGRFTISRDNAKNTVYLQMNSLKPEDTAVYDCAADLYYYGFFWDFGDGFDYWGQGTQVTVSS | low polyreactivity |
| QVQLVEAGGGLVQAGGSLRLSCAASGQIFRKNARGWYSQAPGKERELVAAINSGGSTKYADSVKGRFTISRDNAKNTVYLQMNSLKPEDTAVDYCAARGRYGVPPGRAHDNWRQGTQVTVSS | high polyreactivity |
| QVQLVEAGGGLVQAGGSLRLSCAASGRIFYSNAMGWCRQAPGKERELVAAITWRGGSTYYADSVKGRFTISRDNAKNTVYLQMNSLKPEDTAVYYCATDGYDDTHYYYLGQGTQVTVSS | low polyreactivity |
| QVQLVEAGGGLVQAGGSLRLSCAASGYTFGPNAMGWYRQAPGKEREFVAAISWSGTSTYYADYVKGRFTISRDNAKNTDYLQMNSLKPEDTAVYYCAARSYRYVSRREYWGQGTLVTVSS | high polyreactivity |
| QVQLVEAGGGLVQAGGSLRLSCASSGRIFNLYAMALYRQAPGKERELVAAINWSGDRTSYADSVKGRFTISRDNAKNTVYLQMNSLKPEDTAVYYCAAEYGLGDDTAYGYWGQGTQVTVSS | low polyreactivity |
| QVQLVEAGGGLVQAGGSLRLSGAASGSIFDYNAMGWYRQAPGKERELVASISYSGGSTYYADSVKGRFTISRDTAKNTVYLQMNSLKPEDTAVYYCNARFYWRWHTAYDYWGQGTQVTVSS | high polyreactivity |
| QVQLVEAGGRLVQAGGSLRLSCAASGITFTYYAMGGYRQPPGKDMELVAAISWSGGSTDYADSVKGRFTISRDNAKNTVYLQMNSLKPEDTAFYYCAATFSRFAYYYWGQGTPVTVSS | high polyreactivity |
| QVQLVEAGRGLVHAGCSLRLSCASSGNIFANYSMGWYRQAPGKERELVAAIRWSASRTYYADSVKGRFTISRDNAMNTVYLQMNSLKPEDTAVYYCAATIDTLWDYYYDYWGQGSQVTVSS | high polyreactivity |
| QVQLVELGGGLVQAGGILRLSCAASGSIFSWNDMGWYRQAPGKERELVAAITSGGSTYYADSVKGRFTISRDNAKNTVYLQMNSLKPEDTAVYYCAAGQDLHDFDYWGQGTQVTVSS | low polyreactivity |
| QVQLVELGGGLVQAGGSLRLSCAASGSTFEVYAMGWYRQAPGKERELVAVINVSDGSTYYADSVKGRFTISRDNAKNTVYLQMNSLKPEDTAVYYCAAYRKGKLRMEYWGQGTQVTVSS | low polyreactivity |
| QVQLVERGGGLVQAGGSLRLSCAASGRIFYVNTMGCYRQAPGKERELVATISSAASTNYADSVKGRFTISRDHAKNTVYLQMNSLKPEETAVYYCNAALYKEYYYWGQGTQVTVSS | low polyreactivity |
| QVQLVESAAGLVQAGASLRLSCAASGRTSTQNAMGWYRQAPGKERELVAAITTGGGSTYYADSVKGRFTISRDNAKYTVYLQMNSLKPEDTAVYYCAARTPQRSEWTQYGYWGQGTQVTVSS | low polyreactivity |
| QVQLVESAAGLVQAGGSLRLSCAASGITFFQYTMGWYRQAPGKERELVAAISTSGARTYYADSVKGRFTISRDNAKNTVYLQMNSLKPEDTAVYYCAARTWRRPYYRPRYEYWAQGTQVTVSS | high polyreactivity |
| QVQLVESAAGLVQAGGSLRLSCAASGRTFQYNAIGWYRQAPGKETELVAAISSSGGSTYYADSVKGRFTISRDNAKNTVYLQLNSLKPEDTAVYYCNAYSQSWNFYGDGDYWGQGTQVTVSS | low polyreactivity |

| Sequence | polyreactivity (PSR sort gate) |
| --- | --- |
| QVQLVESAAGLVQAGGSLRLSGAASGRIFRYYAMGCYRQAPGKEREFVAGITWSGGRTYYADSVKGRFTISRANAKNTVYLQMNTLKREDTAVYYCAADGWGYSFQWQDHDYWGQGTQVTVSS | low polyreactivity |
| QVQLVESAGGGVQAGGSLRLSCPASGIIFVPNTMGWYRQAPGKEREFVASISRRGGNTNYADSVKGRFTISRDNAKNTVYLQMNSLKPEDTAVYYCAKYSSSEGKYDYWGQGTQVTVSS | high polyreactivity |
| QVQLVESAGGIVQAGGSLRLRCAASGRTVVNSMGWYRQAPGKERELVAAISTNGGRTYYADSVKWRFTISRDNAKNTVYLQMNSLKPEDTAVYYCAKVLGIRPTYYYWGQGYQVTVSS | high polyreactivity |
| QVQLVESAGGLDQAGGSLPLSCAASGRIFRYNAMGWYRQAPGKERELVSAITWNGASTFYADSVKGRFTISRDNAKNSVYLLMNSLKPEDTAVYYCAYVRDFSGYWLWSYNLYDYWGQGTKVTVSS | high polyreactivity |
| QVQLVESAGGLDQAGGSLRLSCAASGFTFSVYVMGWYRQAPGKERELVASISKRGGSTTYADSVKGRFTISRDNAKNTVYLQMNSLKPEDTAVYYCAALGPGYYWGQGTQVTVSS | high polyreactivity |
| QVQLVESAGGLGQAGGSLRLSCAASGRIIVRNTMGWYRQAPGKDRELVARITGRGGTTYYADSVKGRFTISRDYAKNPVYFQMNSLKPEDTADYYCKAGKYLRLDPVGPNYSRKYGYWGQGTQVTVSS | low polyreactivity |
| QVQLVESAGGLLQTGGSLRLSCAASGRTLWYNAMGWYRQAPGKERELVAAISSGGSTNYADSVKGRFTISRDNAKHTVYLQMNSLKPEDTAVYYCAAWLAYSSRYGYWGQGTQVTVSS | low polyreactivity |
| QVQLVESAGGLVKAGGSLRLSCAAYGSTFSYYTMGWYRQAPGKERELVAAITRRGDSTYADSVKGRFTISRDNAKNTVYLQMNSLKPEDTAVYYCAADASVGVSGMDYWGQGTQVTVSS | low polyreactivity |
| QVQLVESAGGLVLAGGSLRLSCAASGYTVVRYAMGWYRQEPGKERELVAAISRSGGSTYYADSVKGRFTISRDNANNTVYLQMNSLNPEDTAVYYCNAYPYSYYDYDYWGQGTQVTVSS | high polyreactivity |
| QVQLVESAGGLVQAGARLRLSCAASGFTFQYYALGWYRQAPGKERELVATISTSGGNTYYADSVKGRFTITRDNAKNTVYLQMNSLKPEDTAVYYCAARRYRASSRGYGYWGQGTQVTVSS | high polyreactivity |
| QVQLVESAGGLVQAGGCLRLSCAACGSIFLYNAMGWYRQAPVKERELVAGITGGGGTNYADSVKGRFTISRDNAKNTVYLQMNSLKPEDTAVYYCAADPSGQFPYSYYNYDYDYWGQGTQVTVSS | low polyreactivity |
| QVQLVESAGGLVQAGGILRLSCAASGRIFPYYDMGWYRQAPGKERELVAAITWNGGSTYYADSVKGRFTISRDNANNTVYLQMNSLKPEDTAVYYCAVEPYYYGEDYWGQGTQVTVSS | low polyreactivity |
| QVQLVESAGGLVQAGGRLRLSCAASGSTFGIYAMGWYRQAPGKERELVAAISSGGSTNYADSVKGRFTISRDNAKNTVYLQMNSLKPEDTAVYYCAVESVYEYGGYVDSAYDYWGQGTQVTVSS | low polyreactivity |
| QVQLVESAGGLVQAGGSHRLSCAASGNIFYYYRMGWYRQEPGKESEFVAAISTSGGNTYYADSVKGRFTISRDNAKNTVYLQINSLKPEDTAVYYCAADDWPWGDAGVDYWGQGTQVTVSS | low polyreactivity |
| QVQLVESAGGLVQAGGSHRLSCPASGSIFDYNPMGWYTQAPGKESELVAAITSGGSTNYADSVKGRFTISRDNAKNTVYLHMNSLKPEDTAVYYCAADHDYYPSNLDFWGQGTQVTVSS | low polyreactivity |
| QVQLVESAGGLVQAGGSLRLICAASGSIFVKYAMGWYRQATGKERELVAAISRSGGSTYYADSVKGRFTISRDNAKNTVYLQMTSLKPEDTAVYYCAADGFRGDMYYWGQGTQVTVSS | low polyreactivity |
